Experiment [1] deals with human FcγRI (CD64) extracellular domain (human) (UniProt P12314). Nature of the experiment: SPR, antibody captured on Protein A, receptor ECD as analyte, 25 °C. (In general: Surface plasmon resonance follows binding to a sensor surface in real time, without labels.)
Experiment [2] deals with human FcγRIIIA_158F (CD16a) extracellular domain (human) (UniProt P08637). Nature of the experiment: SPR, antibody captured on Protein A, steady state, 25 °C.
Experiment [3] has as its target human FcγRIIb (CD32b) extracellular domain (human) (UniProt P31994). The description is as above.
Experiment [4] has as its target human FcγRIIA_131H (CD32a) extracellular domain (human) (UniProt P12318). The experiment is described as above.
Experiment [5] has as its target human FcγRIIA_131R (CD32a) extracellular domain (human) (UniProt P12318). Described as above.
For experiment [6], the target named is human FcγRIIIA_158V (CD16a) extracellular domain (human) (UniProt P08637). The description is as above.

In general, Kd refers to the equilibrium constant for the complex coming apart. A high value points to a looser complex.

Chain of human FcγRIIb (CD32b) extracellular domain (human) (P31994 43-217): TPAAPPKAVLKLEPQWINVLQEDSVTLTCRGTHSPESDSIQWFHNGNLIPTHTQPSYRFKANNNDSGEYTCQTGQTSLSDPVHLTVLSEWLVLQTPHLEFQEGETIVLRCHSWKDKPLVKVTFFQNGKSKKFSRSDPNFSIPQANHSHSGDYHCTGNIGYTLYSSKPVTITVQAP
Chain of human FcγRIIA_131H (CD32a) extracellular domain (human) (P12318 34-217): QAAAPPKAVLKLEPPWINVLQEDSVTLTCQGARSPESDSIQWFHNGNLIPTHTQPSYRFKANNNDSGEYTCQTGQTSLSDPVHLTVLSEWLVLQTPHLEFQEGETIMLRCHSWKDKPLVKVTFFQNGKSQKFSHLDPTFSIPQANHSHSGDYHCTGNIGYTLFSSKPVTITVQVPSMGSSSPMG
Chain of human FcγRIIA_131R (CD32a) extracellular domain (human) (P12318 34-217 H167R): as the sequence (P12318 34-217) above, with H134R counted along it
Chain of human FcγRI (CD64) extracellular domain (human) (P12314 16-292): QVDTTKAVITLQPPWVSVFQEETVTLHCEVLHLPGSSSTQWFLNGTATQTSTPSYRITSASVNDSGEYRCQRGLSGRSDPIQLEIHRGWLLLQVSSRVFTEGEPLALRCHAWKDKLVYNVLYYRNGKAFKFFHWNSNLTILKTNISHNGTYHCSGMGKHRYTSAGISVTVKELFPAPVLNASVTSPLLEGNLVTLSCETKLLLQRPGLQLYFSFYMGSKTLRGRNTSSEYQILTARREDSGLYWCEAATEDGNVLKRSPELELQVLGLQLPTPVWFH
Chain of human FcγRIIIA_158F (CD16a) extracellular domain (human) (P08637 17-208): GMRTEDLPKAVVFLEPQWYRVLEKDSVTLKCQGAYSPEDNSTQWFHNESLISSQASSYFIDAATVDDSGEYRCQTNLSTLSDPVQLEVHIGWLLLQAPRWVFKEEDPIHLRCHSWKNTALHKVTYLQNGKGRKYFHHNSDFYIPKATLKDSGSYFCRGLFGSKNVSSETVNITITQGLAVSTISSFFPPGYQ
Chain of human FcγRIIIA_158V (CD16a) extracellular domain (human) (P08637 17-208 F176V): as the sequence (P08637 17-208) above, with F160V counted along it

As for Hu IgG1 (antibody), the Kd in experiment [1] is 0.0521 nM; in experiment [2], 1290 nM; in experiment [3] it was 3110 nM; in experiment [4] it was 680 nM; in experiment [5] it was 740 nM.

As to Hu IgG4 SP (antibody), the Kd in experiment [1] worked out at 0.419 nM; in experiment [3] it was 2780 nM; in experiment [4] it was 5310 nM; in experiment [6], 7350 nM; in experiment [5], 2310 nM.

(Values after US20230064378A1.)
